Results from US20210206848A1 (Stanford University, published 2021).

T1: extracellular region of human CD45 (human, UniProt P08575 26-577)
T1 construct: also called hCD45
T1 sequence: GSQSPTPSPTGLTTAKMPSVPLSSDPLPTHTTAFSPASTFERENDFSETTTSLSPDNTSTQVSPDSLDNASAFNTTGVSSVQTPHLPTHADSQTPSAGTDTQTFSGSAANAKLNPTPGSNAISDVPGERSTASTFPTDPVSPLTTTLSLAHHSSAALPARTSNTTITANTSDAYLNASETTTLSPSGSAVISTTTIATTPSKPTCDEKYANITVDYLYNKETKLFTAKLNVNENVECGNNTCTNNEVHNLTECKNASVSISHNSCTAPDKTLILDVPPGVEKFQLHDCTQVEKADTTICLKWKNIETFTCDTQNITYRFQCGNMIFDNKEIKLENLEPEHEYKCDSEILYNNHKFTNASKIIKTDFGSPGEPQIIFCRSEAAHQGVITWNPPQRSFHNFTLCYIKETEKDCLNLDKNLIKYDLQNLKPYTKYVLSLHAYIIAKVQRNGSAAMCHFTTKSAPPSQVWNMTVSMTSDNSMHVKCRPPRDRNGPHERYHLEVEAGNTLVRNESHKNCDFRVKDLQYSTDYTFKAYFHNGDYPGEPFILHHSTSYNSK

B1: CD45-PD1(Nivo)-Stabilized (bispecific antibody)
chain: QVQLVESGAEVKKPGASVKVSCKASGYTFTNYIIHWVKQEPGQGLEWIGYFNPYNHGTKYNEKFKGRATLTADKSISTAYMELSSLTSEDTAVYYCARSGPYAWFDTWGQGTTVTVSSGGGGSEIVLTQSPATLSLSPGERATLSCRASQSVSSYLAWYQQKPGQAPRLLIYDASNRATGIPARFSGSGSGTDFTLTISSLEPEDFAVYYCQQSSNWPRTFGQTKVEIKRRADAAAAGGGGSGGGGSGGGGSGGGGTGGGGSQVQLVESGGGVVQPGRSLRLDCKASGITFSNSGMHWVRQAPGKGLEWVAVIWYDGSKRYYADSVKGRFTISRDNSKNTLFLQMNSLTAEDTAVYYCATNDDYWGQGTLVTVSSGGGGSDILLTQSPATLSLSPGERATLSCRASQNIGTSIQWYQQKPGQAPRLLIRSSSESISGISSRFSGSGSGTDFTLTISSLEPEDFAVYYCQQSNTWPFTFGQGTKLEIKAAAHHHHHHHH
notes: also called αCD45-PD1(Nivo); αCD45-PD1 (Nivo)
B2: CD45-PD1(VHH) (bispecific antibody)
chain: DVQLVESGGGVVQPGGSLRLSCAASGSIASIHAMGWFRQAPGKEREFVAVITWSGGITYYADSVKGRFTISRDNSKNTVYLQMNSLRPEDTALYYCAGDKHQSSWYDYWGQGTLVTVSSGGGSLEVLFQGPGSGSDILLTQSPATLSLSPGERATLSCRASQNIGTSIQWYQQKPGQAPRLLIRSSSESISGISSRFSGSGSGTDFTLTISSLEPEDFAVYYCQQSNTWPFTFGQGTKLEIKGGSTRSSSSGGGGSGGGGQVQLVESGAEVKKPGASVKVSCKASGYTFTNYIIHWVKQEPGQGLEWIGYFNPYNHGTKYNEKFKGRATLTADKSISTAYMELSSLRSEDTAVYYCARSGPYAWFDTWGQGTTVTVSSAAAHHHHHHHH
notes: Anti-CD45 scFv fused to an anti-human PD-1 nanobody (VHH, from US20170137517A1); also called αCD45-PD1(VHH); 2nd generation anti-human RIPR-PD1

Legend:
[1] = biological target: T2, extracellular region of human PD-1 (human); experiment: SPR; target PD-1 extracellular region
T2 construct: also called hPD-1
T2 sequence (chain, as listed by the source limits assumed): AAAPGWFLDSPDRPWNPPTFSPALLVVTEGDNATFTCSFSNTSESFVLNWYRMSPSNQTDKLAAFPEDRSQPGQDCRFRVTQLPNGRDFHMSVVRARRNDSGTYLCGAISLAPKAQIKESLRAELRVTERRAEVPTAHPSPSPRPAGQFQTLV

[2] = biological target: T1, extracellular region of human CD45; experiment: SPR; target CD45 extracellular region
[3] = biological target: T2, extracellular region of human PD-1; experiment: SPR
[4] = biological target: T1, extracellular region of human CD45; experiment: SPR

Binder	Kd [1]	Kd [2]	Kd [3]	Kd [4]
B1	~6 nM	~300 nM		
B2			~5 nM	~700 nM
